Source: patent publication US20020058276A1 (GOVERNING COUNCIL OF THE UNIVERSITY OF TORONTO, published 2002)

Biological target: wild type human presenilin 1 (PS1) (human, UniProt P49768 1-467)
Test: cell-based or functional assay

Binder	Aβ42/Aβ40 Ratio
PAMPΔ312-369 (other, not shown: small tags and cut ends) NSVERKIYIPLNKTAPCVRLLNATHQIGCQSSISGDTGVIHVVEKEEDLQWVLTDGPNPPYMVLLESKHFTRDLMEKLKGRTSRIAGLAVSLTKPSPASGFSPSVQCPNDGFGVYSNSYGPEFAHCREIQWNSLGNGLAYEDFSFPIFLLEDENETKVIKQCYQDHNLSQNGSAPTFPLCAMQLFSHMHAVISTATCMRRSSIQSTFSINPEIVCDPLSDYNVWSMLKPINTTGTLKPDDRVVVAATRLDSRSFFWNVAPGAESAVASFVTQLAAAEALRTSLELWMHTDPVSQKNESVRNQVEDLLATLEKSGAGVPAVILRRPNQSQPLPPSSLQRFLRARNISGVVLADHSGAFHNKYYQSIYDTAENINVSYPEWLSPEEDLNFVTDTAKALADVATVLGRALYELAGGTNFSDTVQADPQTVTRLLYGFLIKANNSWFQSILRQDLRSYLGDGPLQHYIAVSSPTNTTYVVQYALANLTGTVVNLTREQCQDPSKVPSENKDLYEYSWVQGPLHSNETDRLPRCVRSTARLARALSPAFELSQWSSTEYSTWTESRWKDIRARIFLIASKELELITLTVGFGILIFSLIVTYCINAKADVLFIAPREPGAVSY	0.09 normalized to mock transfection (1.0)
PAMPΔ312-340 (other, not shown: small tags and cut ends) NSVERKIYIPLNKTAPCVRLLNATHQIGCQSSISGDTGVIHVVEKEEDLQWVLTDGPNPPYMVLLESKHFTRDLMEKLKGRTSRIAGLAVSLTKPSPASGFSPSVQCPNDGFGVYSNSYGPEFAHCREIQWNSLGNGLAYEDFSFPIFLLEDENETKVIKQCYQDHNLSQNGSAPTFPLCAMQLFSHMHAVISTATCMRRSSIQSTFSINPEIVCDPLSDYNVWSMLKPINTTGTLKPDDRVVVAATRLDSRSFFWNVAPGAESAVASFVTQLAAAEASRMVYDMEKGKFPVQLENVDSFVELGQVALRTSLELWMHTDPVSQKNESVRNQVEDLLATLEKSGAGVPAVILRRPNQSQPLPPSSLQRFLRARNISGVVLADHSGAFHNKYYQSIYDTAENINVSYPEWLSPEEDLNFVTDTAKALADVATVLGRALYELAGGTNFSDTVQADPQTVTRLLYGFLIKANNSWFQSILRQDLRSYLGDGPLQHYIAVSSPTNTTYVVQYALANLTGTVVNLTREQCQDPSKVPSENKDLYEYSWVQGPLHSNETDRLPRCVRSTARLARALSPAFELSQWSSTEYSTWTESRWKDIRARIFLIASKELELITLTVGFGILIFSLIVTYCINAKADVLFIAPREPGAVSY	0.59 normalized to mock transfection (1.0)
